From paper PMC7790435

Target: Thermotoga maritima CheA, full-length (Thermotoga maritima) (UniProt Q56310)
Assay: cross-linking + SEC-MALS

| Molecule | stoichiometry N |
| --- | --- |
| Thermotoga maritima CheA, full-length (from UniProt Q56310 1-671) (enzyme) | 2 |
| Thermotoga maritima CheW (natural protein) KEFEVLSFEIDEQALAFDVDNIEMVIEKSDITPVPKSRHFVEGVINLRGRIIPVVNLAKILGISFDEQKMKSIIVARTKDVEVGFLVDRVLGVLRITENQLDLTNVSDKFGKKSKGLVKTDGRLIIYLDIDKIIEEITV | 2 |
